Data set [1] concerns the target T1, coreROQ (Roquin-1 core ROQ domain) (murine) (UniProt Q4VGL6).
T1 sequence: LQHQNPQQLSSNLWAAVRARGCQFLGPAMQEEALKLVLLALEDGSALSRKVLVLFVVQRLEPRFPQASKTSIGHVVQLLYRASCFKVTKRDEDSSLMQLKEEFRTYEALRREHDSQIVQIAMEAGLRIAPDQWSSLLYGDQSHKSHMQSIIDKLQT
Description: optical tweezers (kinetics, koff/kon). Particulars: low-salt buffer, Protein/RNA buffer 150 mM NaCl, 50 mM Tris pH 7.0, 1 mM TCEP, OT in low-salt near-physiological buffer (composition not in material), EMSA 3 nM RNA, 0-20 uM …. (In general: In EMSA bound probe runs differently from free probe, usually more slowly.)

The target in data set [2] is T2, extROQ (Roquin-1 extended ROQ domain) (murine) (UniProt Q4VGL6).
T2 sequence: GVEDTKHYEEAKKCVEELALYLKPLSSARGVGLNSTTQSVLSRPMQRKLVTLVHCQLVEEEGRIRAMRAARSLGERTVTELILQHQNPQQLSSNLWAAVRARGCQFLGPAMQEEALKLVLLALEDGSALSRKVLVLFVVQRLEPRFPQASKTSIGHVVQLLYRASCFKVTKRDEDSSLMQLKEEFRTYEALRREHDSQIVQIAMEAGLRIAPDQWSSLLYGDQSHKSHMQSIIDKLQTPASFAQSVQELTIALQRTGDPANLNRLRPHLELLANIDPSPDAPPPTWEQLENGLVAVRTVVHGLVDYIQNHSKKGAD
The data set can be described thus: optical tweezers (kinetics, koff/kon). Particulars: low-salt buffer, Protein/RNA buffer 150 mM NaCl, 50 mM Tris pH 7.0, 1 mM TCEP, OT in low-salt near-physiological buffer (composition not in material), EMSA 3 nM RNA, 0-20 uM ….

The target in data set [3] is T3, extROQ (Roquin-1 extended ROQ domain) (murine, UniProt Q4VGL6 89-404).
T3 sequence: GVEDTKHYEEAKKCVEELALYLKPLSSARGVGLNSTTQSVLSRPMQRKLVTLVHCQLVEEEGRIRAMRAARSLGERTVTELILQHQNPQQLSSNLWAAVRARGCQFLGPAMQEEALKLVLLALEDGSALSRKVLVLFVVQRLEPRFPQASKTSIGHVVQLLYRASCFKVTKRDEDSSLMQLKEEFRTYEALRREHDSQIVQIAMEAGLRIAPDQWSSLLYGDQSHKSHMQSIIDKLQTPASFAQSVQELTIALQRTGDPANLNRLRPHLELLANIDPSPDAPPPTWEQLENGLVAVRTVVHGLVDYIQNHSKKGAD
Description: hydroxyl radical footprinting; residues 62-87 protected, 88-100 more exposed; Protein/RNA buffer 150 mM NaCl, 50 mM Tris pH 7.0, 1 mM TCEP; OT in low-salt near-physiological buffer (composition not in material); EMSA 3 nM RNA, 0-20 uM protein, 6% native PAGE at 4 C. Particulars: protein: recombinant; tags: His tag removed by TEV (Ni IMAC; tag type implied); label: 5' fluorescein in EMSA; none stated for NMR/CD; hairpin with hexaloop and central bulge.

Data set [4] concerns the target T4, coreROQ (Roquin-1 core ROQ domain) (murine, UniProt Q4VGL6 171-326).
T4 sequence: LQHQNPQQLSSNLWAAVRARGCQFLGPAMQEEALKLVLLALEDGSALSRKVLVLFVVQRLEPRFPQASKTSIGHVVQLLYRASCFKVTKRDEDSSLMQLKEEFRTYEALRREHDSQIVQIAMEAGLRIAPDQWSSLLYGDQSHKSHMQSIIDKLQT
The data set is described as above. The note with it: protein: recombinant; tags: His tag removed by TEV (Ni IMAC; tag type implied); label: 5' fluorescein in EMSA; none stated for NMR/CD; hairpin with hexaloop and central bulge.

The source of these data is PMC12012478, “Roquin exhibits opposing effects on RNA stem-loop stability through its two ROQ domain binding sites”.

A word on the Kd: it is the concentration at which binding is half-saturated. “GGCAGGGCUGACGUAGUUGGAGUGGUGCGGGAGGGCCUGCCAGUACCCUCCACACCGUUCUAGGUGCUGGGCUGGCUCUGGGCAGUGAGGGCAGAAUUCAGGUG [Ox40 ADE, optical tweezers construct]”: the Kd is 4.8 nM in data set [1] (extrapolated to zero force) and 1.67 nM in data set [2] (extrapolated to zero force).

Consider “GGCAGGGCUGACGUAGUUGGAGUGGUGCGGGAGGGGCUUUCCUAUGUAUGCUAUGCAUACUACAGUGAGGGCAGAAUUCAGGUG [Ox40 CDE, optical tweezers construct]”, for which the Kd in data set [1] (zero force) is 33 nM; in data set [2] (zero force) it was 2 nM.

B1: Ox40 ADE, bulk RNA (structured_RNA)
RNA: GCCUGCCAGUACCCUCCACACCGUUCUAGGUGCUGGGCUGGCUCUGGGC
As to B1, the binding result in data set [3] and in data set [4] was “binds” each time.
